Reference: US20050158311A1
Values belong to the molecule of their own block, whether it stands above or below them.

What was measured:
Test in all cases: cell-based or functional assay
[1] = biological target: Dishevelled (overexpressed in 293T cells)
[2] = biological target: over-expressed Ryk (from a transfected DNA construct expressing Ryk)
[3] = biological target: endogenous Ryk of mouse (brain cell lysate; DRG explants) (mouse) (UniProt Q01887)
[4] = biological target: endogenous Ryk of 293T cells (human) (UniProt P34925)
Sequence of UniProt P34925 (P34925 26-607 limits assumed): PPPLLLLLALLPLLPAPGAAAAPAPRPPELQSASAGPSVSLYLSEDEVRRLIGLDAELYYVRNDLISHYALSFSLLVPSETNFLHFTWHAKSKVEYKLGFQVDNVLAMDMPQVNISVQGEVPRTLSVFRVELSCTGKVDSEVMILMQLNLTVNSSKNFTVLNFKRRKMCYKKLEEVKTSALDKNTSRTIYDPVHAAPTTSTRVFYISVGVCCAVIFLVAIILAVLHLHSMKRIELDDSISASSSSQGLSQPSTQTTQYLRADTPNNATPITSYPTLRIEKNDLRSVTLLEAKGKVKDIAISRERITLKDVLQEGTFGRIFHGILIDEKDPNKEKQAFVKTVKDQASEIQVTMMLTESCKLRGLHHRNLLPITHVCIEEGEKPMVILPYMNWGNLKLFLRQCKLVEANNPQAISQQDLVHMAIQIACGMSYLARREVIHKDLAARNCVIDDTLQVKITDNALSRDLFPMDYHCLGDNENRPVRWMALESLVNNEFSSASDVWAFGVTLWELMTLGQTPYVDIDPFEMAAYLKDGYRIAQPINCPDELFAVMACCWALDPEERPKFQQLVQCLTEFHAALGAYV

Sequence of UniProt Q01887 (Q01887 35-594 limits assumed): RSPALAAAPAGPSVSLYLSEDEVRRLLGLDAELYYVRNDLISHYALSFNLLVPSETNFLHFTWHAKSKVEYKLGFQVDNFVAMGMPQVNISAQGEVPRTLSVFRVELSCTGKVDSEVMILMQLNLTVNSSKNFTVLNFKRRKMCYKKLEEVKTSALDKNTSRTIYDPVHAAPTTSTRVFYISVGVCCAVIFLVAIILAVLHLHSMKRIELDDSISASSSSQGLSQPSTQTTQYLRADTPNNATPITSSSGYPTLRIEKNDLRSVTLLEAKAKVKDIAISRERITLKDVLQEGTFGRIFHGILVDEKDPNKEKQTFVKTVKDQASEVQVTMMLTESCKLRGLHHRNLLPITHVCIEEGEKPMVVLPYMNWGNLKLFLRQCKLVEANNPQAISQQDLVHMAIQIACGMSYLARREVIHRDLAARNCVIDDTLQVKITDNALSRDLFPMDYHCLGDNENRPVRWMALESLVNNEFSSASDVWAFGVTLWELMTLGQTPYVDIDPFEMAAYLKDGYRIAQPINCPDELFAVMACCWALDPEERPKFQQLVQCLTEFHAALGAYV

activation of the TCF-luciferase reporter [1]: 25 fold
Molecule: over-expressed Ryk (from a transfected DNA construct expressing Ryk) (receptor)

activation of the TCF-luciferase reporter [2]: 5 fold
average length of neurites of DRG explants, Ryk siRNA mice against wild type [3]: 2 fold
Molecule: Wnt3a (Wnt3a conditioned medium) (ligand)

activation of the TCF-luciferase reporter [4]: 25 fold
fold decrease in TCF-driven transcription in Ryk siRNA-containing 293T cells [4]: 12 fold
B1: Wnt-1 (cotransfected in the TCF-luciferase reporter assay) (ligand, UniProt P04628 28-370, looked up, species assumed)
Proto-oncogene Wnt-1: ANSSGRWWGIVNVASSTNLLTDSKSLQLVLEPSLQLLSRKQRRLIRQNPGILHSVSGGLQSAVRECKWQFRNRRWNCPTAPGPHLFGKIVNRGCRETAFIFAITSAGVTHSVARSCSEGSIESCTCDYRRRGPGGPDWHWGGCSDNIDFGRLFGREFVDSGEKGRDLRFLMNLHNNEAGRTTVFSEMRQECKCHGMSGSCTVRTCWMRLPTLRAVGDVLRDRFDGASRVLYGNRGSNRASRAELLRLEPEDPAHKPPSPHDLVYFEKSPNFCTYSGRLGTAGTAGRACNSSSPALDGCELLCCGRGHRTRTQRVTERCNCTFHWCCHVSCRNCTHTRVLHECL
